According to patent publication US20100180464A1, “Cores and microcapsules suitable for parenteral administration as well as process for their manufacture” (STRATOSPHERE PHARMA AB, priority 2007, published 2010):

What was measured:
Format in all cases: physicochemical
[1] = Electrophoresis (SDS-PAGE 12 and 18%) with silver staining of proteins after encapsulation in cores; settings: cores with sodium hyaluronate and rice starch diluent particles; carbon dioxide atomisation; cold medium ethanol or ethanol containing solid carbon dioxide; dried with air at room temperature
Description: (§1) Cores suitable for air suspension coating and containing either human growth hormone (hGH) or erythropoietin (EPO) were prepared by essentially according to Example 1 using carbon dioxide for atomisation but with ethanol or ethanol containing solid carbon dioxide as the cold medium. For hGH the composition contained sodium hyaluronate (1%, about 4.1 g), diluent particles (rice starch, Sigma 57260, 1.83 g) and hGH (217 mg) and for EPO sodium hyaluronate (about 3.4), diluent particles (about 1.48 g) and EPO (11 mg). There was substantial stirring in the cold medium in the presence of solid carbon dioxide and little, if any, backflow of gas. The cold medium was removed by filtration and the cores dried using air at room temperature and atmospheric pressure. Cores suitable for air suspension coating were formed containing hGH (624 mg) and EPO (468 mg). […] No increase in the content of dimer or polymer forms of hGH were observed by HPLC size exclusion chromatography (SEC-HPLC, TSK2000 SWx1, Tosoh Corporation) according to Reslow et al (Sustained release of human growth hormone (hGH) from PLG-coated starch microspheres. Drug Delivery Systems and Sciences, 2002, 2,1 103-109).

[2] = Western blotting for dimer content
Description: as §1

[3] = HPLC size exclusion chromatography (SEC-HPLC, TSK2000 SWx1) for dimer or polymer forms; settings: cores prepared per Example 10
Description: as §1

| Substance | degradation products detected by electrophoresis [1] | increase in dimer content ([2]; absence of carbon dioxide in the cold medium (ethanol)) | increase in dimer content ([2]; carbon dioxide present in the cold medium (ethanol)) | increase in the content of dimer or polymer forms [3] |
| --- | --- | --- | --- | --- |
| erythropoietin [EPO] | No degradation products | clearly higher increase | slight increase |  |
| human growth hormone [hGH] | No degradation products |  |  | No increase |
